Experimental findings from patent US20200062804A1 (ADRX, published 2020) are described below.

Values joined by “and” are separate entries in the source; they are usually repeats but may differ in a detail not shown here. Identical values can stand only once. Non-standard residues stand in square brackets, D forms with d. No end group written: not given here. NMeI = CC[C@H](C)[C@H](NC)C(=O)O; hArg = N=C(N)NCCCC[C@H](N)C(=O)O

The target in the assay is T1, Nat1 (LTIITLE) (also: TFA salt).
T1 peptide: LTIITLE
In words: cell-based or functional assay.
In the case of [dR][dQ][dH][dY][dH][dW][dR] [rqhyhwr], the “IC50, Thiofiavin T aggregation assay” value turned out to be 296 nM.
On to TLIIYHR, for which the “IC50, Thiofiavin T aggregation assay” value was determined as 357 nM.
Regarding LLIKYHA, the “IC50, Thiofiavin T aggregation assay” value came out at 234 nM.
Take LFIYYQR: the “IC50, Thiofiavin T aggregation assay” value came out at 440 nM.
With [dR][dW][dR][dY][dL][dR][dR] [rwrylrr], the “IC50, Thiofiavin T aggregation assay” value amounted to 49 nM.
LTIQLWH: the “IC50, Thiofiavin T aggregation assay” value worked out at 481 nM.
Turning to LYIFRHT, the “IC50, Thiofiavin T aggregation assay” value is 363 nM.
[dF][dW][dR][dA][dH][dR][dR] [fwrahrr]: the “IC50, Thiofiavin T aggregation assay” value stood at 293 nM.
Regarding IRIRAAR, the “IC50, Thiofiavin T aggregation assay” value worked out at 451 nM.
Regarding [dY][dQ][dW][dQ][dY][dQ][dR] [yqwqyqr], the “IC50, Thiofiavin T aggregation assay” value is 354 nM.
Turning to LLIKAHR, the “IC50, Thiofiavin T aggregation assay” value turned out to be 258 nM.
For the molecule LRIRHVK, the “IC50, Thiofiavin T aggregation assay” value was determined as 246 nM.
For WTKITLH, the “IC50, Thiofiavin T aggregation assay” value was 427 nM.
With [dW][dW][dR][dR][dH][dH][dR] [wwrrhhr], the “IC50, Thiofiavin T aggregation assay” value is 247 nM.
As to I[hArg]I[hArg]RWR [Ile-homoArg-Ile-homoArg-Arg-Trp-Arg], the “IC50, Thiofiavin T aggregation assay” value turned out to be 49 nM.
For IRIRHYR, the “IC50, Thiofiavin T aggregation assay” value came to 14 nM.
Next, WYIRTYH: 287 nM; WYIRLTH: 369 nM.
Consider [dR][dQ][dM][dQ][dY][dR][dR] [rqmqyrr], for which the “IC50, Thiofiavin T aggregation assay” value was determined as 236 nM.
As to [dS][dH][dW][dR][dR][dH][dR] [shwrrhr], the “IC50, Thiofiavin T aggregation assay” value was found to be 338 nM.
Consider LFIFYHR, for which the “IC50, Thiofiavin T aggregation assay” value worked out at 476 nM.
For the molecule IQIYRYK, the “IC50, Thiofiavin T aggregation assay” value was found to be 444 nM.
Regarding WTIRYYH, the “IC50, Thiofiavin T aggregation assay” value is 473 nM and 214 nM.
The result for IRIARYR reads 44 nM.
On to [dK][dR][dW][dR][dH][dQ][dR] [krwrhqr], for which the “IC50, Thiofiavin T aggregation assay” value was found to be 245 nM.
As to [dF][dW][dR][dW][dH][dA][dA] [fwrwhaa], the “IC50, Thiofiavin T aggregation assay” value came out at 458 nM.
For the molecule WTRILWH, the “IC50, Thiofiavin T aggregation assay” value is 398 nM.
With LYIRHK, the “IC50, Thiofiavin T aggregation assay” value was 316 nM.
Regarding LTIRTWH, the “IC50, Thiofiavin T aggregation assay” value was 295 nM.
The result for [dH][dW][dR][dW][dR][dW][dR] [hwrwrwr] reads 245 nM; that for LTIMLWH, 425 nM.
WTRIYLH: the “IC50, Thiofiavin T aggregation assay” value came to 240 nM.
The result for YYIRYYK reads 494 nM; that for LR[NMeI]KYHR [LR(N-Me)IKYHR], 334 nM; that for IRIRRAA, 248 nM.
Turning to IYIYHQR, the “IC50, Thiofiavin T aggregation assay” value is 269 nM.
Next, IRVYKYS: 480 nM; [dF][dW][dR][dH][dK][dH][dR] [fwrhkhr]: 264 nM and 161 nM.
Regarding LTIRLTH, the “IC50, Thiofiavin T aggregation assay” value turned out to be 329 nM.
With [dY][dW][dQ][dW][dR][dQ][dS] [ywqwrqs], the “IC50, Thiofiavin T aggregation assay” value turned out to be 338 nM.
Next, [dS][dW][dR][dW][dH][dH][dR] [swrwhhr]: 301 nM.
For the molecule TYIRYLR, the “IC50, Thiofiavin T aggregation assay” value was 412 nM.
WYIRLWH: the “IC50, Thiofiavin T aggregation assay” value was 288 nM.
The result for LTIKLWH reads 260 nM and 232 nM; that for LYIRTWH, 302 nM; that for [dF][dW][dA][dW][dH][dR][dR] [fwawhrr], 239 nM.
For the molecule LLIKYHR, the “IC50, Thiofiavin T aggregation assay” value was 248 nM and 489 nM.
The result for LYIRTYH reads 257 nM and 463 nM; that for IRFRRYR, 496 nM.
Next, [dR][dF][dH][dY][dF][dR][dK] [rfhyfrk]: 51 nM.
Consider [dH][dW][dR][dW][dL][dR][dR] [hwrwlrr], for which the “IC50, Thiofiavin T aggregation assay” value came to 43 nM.
As for LLIKYAR, the “IC50, Thiofiavin T aggregation assay” value was determined as 301 nM.
As for [dR][dF][dY][dR][dH][dH][dR] [rfyrhhr], the “IC50, Thiofiavin T aggregation assay” value was found to be 244 nM.
Regarding [dF][dW][dR][dW][dH][dA][dR] [fwrwhar], the “IC50, Thiofiavin T aggregation assay” value worked out at 245 nM.
As to LLIAYHR, the “IC50, Thiofiavin T aggregation assay” value turned out to be 466 nM.
Next, [dF][dA][dR][dW][dH][dR][dR] [farwhrr]: 287 nM; IRIRRYA: 44 nM; [dW][dW][dR][dF][dH][dW][dR] [wwrfhwr]: 472 nM.
The result for WYIRLWK reads 262 nM.
With WTRIYYH, the “IC50, Thiofiavin T aggregation assay” value amounted to 420 nM.
Turning to [dA][dW][dR][dW][dH][dR][dR] [awrwhrr], the “IC50, Thiofiavin T aggregation assay” value is 267 nM.
RLYIRLS: the “IC50, Thiofiavin T aggregation assay” value was determined as 284 nM.
[dK][dQ][dW][dY][dH][dW][dR] [kqwyhwr]: the “IC50, Thiofiavin T aggregation assay” value turned out to be 252 nM.
